Test results from US20090186027A1 (RAMOT AT TEL AVIV UNIVERSITY, published 2009).

Target: T1, β-amyloid peptide 1-40 (UniProt P05067 672-711)
T1 construct: domain: beta amyloid peptide 1-40; Residues 1-40 are counted on Aβ, not on the APP entry; Coated after overnight incubation at 37 C (ELISA) or pre-aggregated for a week (ThT assay); also called Aβp 1-40; AβP 1-40
Experiment: ELISA, constant 10 µM Aβ 1-40 coated, 3.125-25 µM antibody; reference 37L
Description: Wells were washed and blocked with 3% milk powder in PBS for 1 hr at 37° C. […] The rest of the ELISA assay was performed as described above.

B1: 37H (single domain antibody, heavy chain variable domain of scFv RCK37) (other)
VH: MAHVQFVQSGGDLVKPGGSLKLSCAASGFTFSSYGMSWVRQTPDKRLEWVATISSGGSYTYYPDSVKGRFTISRDNAKNTLYLQMSSLKSEDTAMYYCARHNYGSSYPYAMDYWGQGTPVTVSA
notes: also called 37H nanobody; nanobody 37H; not shown: C-terminal His tag from the pET28/pET21 vector
For B1, the “fold stronger binding than 37L” value was 5 times.
